Patent publication USRE47150 (Bayer, dated 2018)

T1: human tissue factor pathway inhibitor (TFPI) (human, UniProt P10646 29-304, limits assumed)
T1 construct: bought; also called hTFPI; human TFPI
T1 sequence (looked up): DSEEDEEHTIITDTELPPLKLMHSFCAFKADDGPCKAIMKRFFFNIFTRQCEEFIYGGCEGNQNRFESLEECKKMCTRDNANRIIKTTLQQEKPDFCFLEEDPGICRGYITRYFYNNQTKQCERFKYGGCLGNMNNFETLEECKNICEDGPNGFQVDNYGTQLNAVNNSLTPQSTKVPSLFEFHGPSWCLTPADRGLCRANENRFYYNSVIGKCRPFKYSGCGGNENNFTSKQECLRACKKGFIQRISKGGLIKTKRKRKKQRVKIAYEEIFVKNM

T2: mouse tissue factor pathway inhibitor (TFPI) (mouse, UniProt O54819 29-289, limits assumed)
T2 construct: bought; also called mTFPI; murine TFPI
T2 sequence (looked up): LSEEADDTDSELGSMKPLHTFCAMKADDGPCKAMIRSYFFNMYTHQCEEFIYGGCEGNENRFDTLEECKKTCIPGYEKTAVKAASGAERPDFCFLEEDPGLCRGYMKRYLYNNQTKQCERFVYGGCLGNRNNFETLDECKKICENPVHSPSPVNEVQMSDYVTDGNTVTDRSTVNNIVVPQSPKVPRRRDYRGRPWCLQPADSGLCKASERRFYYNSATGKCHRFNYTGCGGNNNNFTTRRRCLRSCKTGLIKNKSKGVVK


How the values were obtained:
[1] = molecular target: T1, human tissue factor pathway inhibitor …; test: competitive ELISA
[2] = molecular target: T2, mouse tissue factor pathway inhibitor …; test: competitive ELISA

variant/HC_K99L [1] [ratio] | variant/HC_K99L [2] [ratio] | Binder
18.1 | 18.2 | 2A8 HC S35D+S55G+K99L/LC Y48F+D91L+V96W (Fab, V domains shown) VH: QVQLVESGGGLVQPGGSLRLSCAASGFTFRSYGMDWVRQAPGKGLEWVSSIRGSGSSTYYADSVKGRFTISRDNSKNTLYLQMNSLRAEDTAVYYCARLYRYWFDYWGQGTLVTVSS VL: DIELTQPPSVSVAPGQTARISCSGDNLRNYYAHWYQQKPGQAPVVVIFYDNNRPSGIPERFSGSNSGNTATLTISGTQAEDEADYYCQSWLDGVPWFGGGTKLTVLG
17 | 16.5 | 2A8 HC S35D+S55R+K99L/LC Y48F+N51V+D91W+G93S (Fab, V domains shown) VH: QVQLVESGGGLVQPGGSLRLSCAASGFTFRSYGMDWVRQAPGKGLEWVSSIRGSRSSTYYADSVKGRFTISRDNSKNTLYLQMNSLRAEDTAVYYCARLYRYWFDYWGQGTLVTVSS VL: DIELTQPPSVSVAPGQTARISCSGDNLRNYYAHWYQQKPGQAPVVVIFYDVNRPSGIPERFSGSNSGNTATLTISGTQAEDEADYYCQSWWDSVPVFGGGTKLTVLG
14 | 11.2 | 2A8 HC S35D+S55R+K99L/LC H33Y+Y48F+N51V+D91W (Fab, V domains shown) VH: QVQLVESGGGLVQPGGSLRLSCAASGFTFRSYGMDWVRQAPGKGLEWVSSIRGSRSSTYYADSVKGRFTISRDNSKNTLYLQMNSLRAEDTAVYYCARLYRYWFDYWGQGTLVTVSS VL: DIELTQPPSVSVAPGQTARISCSGDNLRNYYAYWYQQKPGQAPVVVIFYDVNRPSGIPERFSGSNSGNTATLTISGTQAEDEADYYCQSWWDGVPVFGGGTKLTVLG
10.9 | 9 | 2A8 HC S35D+S55R+K99L/LC Y48F+N51V+S89A+D91W+D92S+G93S+V94T+P95A (Fab, V domains shown) VH: QVQLVESGGGLVQPGGSLRLSCAASGFTFRSYGMDWVRQAPGKGLEWVSSIRGSRSSTYYADSVKGRFTISRDNSKNTLYLQMNSLRAEDTAVYYCARLYRYWFDYWGQGTLVTVSS VL: DIELTQPPSVSVAPGQTARISCSGDNLRNYYAHWYQQKPGQAPVVVIFYDVNRPSGIPERFSGSNSGNTATLTISGTQAEDEADYYCQAWWSSTAVFGGGTKLTVLG
18.6 | 18.2 | 2A8 HC S35D+S55R+K99L/LC Y48F+N51V+S89A+D91W (Fab, V domains shown) VH: QVQLVESGGGLVQPGGSLRLSCAASGFTFRSYGMDWVRQAPGKGLEWVSSIRGSRSSTYYADSVKGRFTISRDNSKNTLYLQMNSLRAEDTAVYYCARLYRYWFDYWGQGTLVTVSS VL: DIELTQPPSVSVAPGQTARISCSGDNLRNYYAHWYQQKPGQAPVVVIFYDVNRPSGIPERFSGSNSGNTATLTISGTQAEDEADYYCQAWWDGVPVFGGGTKLTVLG
17.8 | 16.9 | 2A8 HC S35D+S56G+K99L/LC Y48F+D91L+V96W (Fab, V domains shown) VH: QVQLVESGGGLVQPGGSLRLSCAASGFTFRSYGMDWVRQAPGKGLEWVSSIRGSSGSTYYADSVKGRFTISRDNSKNTLYLQMNSLRAEDTAVYYCARLYRYWFDYWGQGTLVTVSS VL: DIELTQPPSVSVAPGQTARISCSGDNLRNYYAHWYQQKPGQAPVVVIFYDNNRPSGIPERFSGSNSGNTATLTISGTQAEDEADYYCQSWLDGVPWFGGGTKLTVLG
4.1 | 4.1 | 2A8 HC S35D+S55R+K99L/LC N26A+Y48F+N51V+D91W (Fab, V domains shown) VH: QVQLVESGGGLVQPGGSLRLSCAASGFTFRSYGMDWVRQAPGKGLEWVSSIRGSRSSTYYADSVKGRFTISRDNSKNTLYLQMNSLRAEDTAVYYCARLYRYWFDYWGQGTLVTVSS VL: DIELTQPPSVSVAPGQTARISCSGDALRNYYAHWYQQKPGQAPVVVIFYDVNRPSGIPERFSGSNSGNTATLTISGTQAEDEADYYCQSWWDGVPVFGGGTKLTVLG
22 | 23.2 | 2A8 HC S35D+S55R+K99L/LC R28P+Y48F+N51V+D91W (Fab, V domains shown) VH: QVQLVESGGGLVQPGGSLRLSCAASGFTFRSYGMDWVRQAPGKGLEWVSSIRGSRSSTYYADSVKGRFTISRDNSKNTLYLQMNSLRAEDTAVYYCARLYRYWFDYWGQGTLVTVSS VL: DIELTQPPSVSVAPGQTARISCSGDNLPNYYAHWYQQKPGQAPVVVIFYDVNRPSGIPERFSGSNSGNTATLTISGTQAEDEADYYCQSWWDGVPVFGGGTKLTVLG
21.4 | 18.7 | 2A8 HC S35D+S55R+S56G+K99L/LC Y48F+N51V+D91W (Fab, V domains shown) VH: QVQLVESGGGLVQPGGSLRLSCAASGFTFRSYGMDWVRQAPGKGLEWVSSIRGSRGSTYYADSVKGRFTISRDNSKNTLYLQMNSLRAEDTAVYYCARLYRYWFDYWGQGTLVTVSS VL: DIELTQPPSVSVAPGQTARISCSGDNLRNYYAHWYQQKPGQAPVVVIFYDVNRPSGIPERFSGSNSGNTATLTISGTQAEDEADYYCQSWWDGVPVFGGGTKLTVLG
23.1 | 21.2 | 2A8 HC S35D+S55R+K99L/LC Y48F+N51V+E80M+D91W (Fab, V domains shown) VH: QVQLVESGGGLVQPGGSLRLSCAASGFTFRSYGMDWVRQAPGKGLEWVSSIRGSRSSTYYADSVKGRFTISRDNSKNTLYLQMNSLRAEDTAVYYCARLYRYWFDYWGQGTLVTVSS VL: DIELTQPPSVSVAPGQTARISCSGDNLRNYYAHWYQQKPGQAPVVVIFYDVNRPSGIPERFSGSNSGNTATLTISGTQAMDEADYYCQSWWDGVPVFGGGTKLTVLG
21.9 | 22 | 2A8 HC S35D+S55R+K99L/LC D1S+Y48F+N51V+D91W (Fab, V domains shown) VH: QVQLVESGGGLVQPGGSLRLSCAASGFTFRSYGMDWVRQAPGKGLEWVSSIRGSRSSTYYADSVKGRFTISRDNSKNTLYLQMNSLRAEDTAVYYCARLYRYWFDYWGQGTLVTVSS VL: SIELTQPPSVSVAPGQTARISCSGDNLRNYYAHWYQQKPGQAPVVVIFYDVNRPSGIPERFSGSNSGNTATLTISGTQAEDEADYYCQSWWDGVPVFGGGTKLTVLG
15.7 | 13.7 | 2A8 HC S35D+S55R+K99L/LC Y48F+N51V+D91W+P95V (Fab, V domains shown) VH: QVQLVESGGGLVQPGGSLRLSCAASGFTFRSYGMDWVRQAPGKGLEWVSSIRGSRSSTYYADSVKGRFTISRDNSKNTLYLQMNSLRAEDTAVYYCARLYRYWFDYWGQGTLVTVSS VL: DIELTQPPSVSVAPGQTARISCSGDNLRNYYAHWYQQKPGQAPVVVIFYDVNRPSGIPERFSGSNSGNTATLTISGTQAEDEADYYCQSWWDGVVVFGGGTKLTVLG
19.5 | 18.8 | 2A8 HC S35D+S55R+K99L/LC S21T+Y48F+N51V+D91W (Fab, V domains shown) VH: QVQLVESGGGLVQPGGSLRLSCAASGFTFRSYGMDWVRQAPGKGLEWVSSIRGSRSSTYYADSVKGRFTISRDNSKNTLYLQMNSLRAEDTAVYYCARLYRYWFDYWGQGTLVTVSS VL: DIELTQPPSVSVAPGQTARITCSGDNLRNYYAHWYQQKPGQAPVVVIFYDVNRPSGIPERFSGSNSGNTATLTISGTQAEDEADYYCQSWWDGVPVFGGGTKLTVLG
20.1 | 19.9 | 2A8 HC S35D+S55R+K99L/LC A13S+Y48F+N51V+D91W (Fab, V domains shown) VH: QVQLVESGGGLVQPGGSLRLSCAASGFTFRSYGMDWVRQAPGKGLEWVSSIRGSRSSTYYADSVKGRFTISRDNSKNTLYLQMNSLRAEDTAVYYCARLYRYWFDYWGQGTLVTVSS VL: DIELTQPPSVSVSPGQTARISCSGDNLRNYYAHWYQQKPGQAPVVVIFYDVNRPSGIPERFSGSNSGNTATLTISGTQAEDEADYYCQSWWDGVPVFGGGTKLTVLG
18.7 | 19 | 2A8 HC S35D+S55R+K99L/LC I2Y+Y48F+N51V+D91W (Fab, V domains shown) VH: QVQLVESGGGLVQPGGSLRLSCAASGFTFRSYGMDWVRQAPGKGLEWVSSIRGSRSSTYYADSVKGRFTISRDNSKNTLYLQMNSLRAEDTAVYYCARLYRYWFDYWGQGTLVTVSS VL: DYELTQPPSVSVAPGQTARISCSGDNLRNYYAHWYQQKPGQAPVVVIFYDVNRPSGIPERFSGSNSGNTATLTISGTQAEDEADYYCQSWWDGVPVFGGGTKLTVLG
22.8 | 19.9 | 2A8 HC S35D+S55R+K99L/LC Y48F+N51V+D91W+V94T (Fab, V domains shown) VH: QVQLVESGGGLVQPGGSLRLSCAASGFTFRSYGMDWVRQAPGKGLEWVSSIRGSRSSTYYADSVKGRFTISRDNSKNTLYLQMNSLRAEDTAVYYCARLYRYWFDYWGQGTLVTVSS VL: DIELTQPPSVSVAPGQTARISCSGDNLRNYYAHWYQQKPGQAPVVVIFYDVNRPSGIPERFSGSNSGNTATLTISGTQAEDEADYYCQSWWDGTPVFGGGTKLTVLG
5 | 3.1 | 2A8 HC S35L+S54F+K99V/LC Y48F+D91K (Fab, V domains shown) VH: QVQLVESGGGLVQPGGSLRLSCAASGFTFRSYGMLWVRQAPGKGLEWVSSIRGFSSSTYYADSVKGRFTISRDNSKNTLYLQMNSLRAEDTAVYYCARVYRYWFDYWGQGTLVTVSS VL: DIELTQPPSVSVAPGQTARISCSGDNLRNYYAHWYQQKPGQAPVVVIFYDNNRPSGIPERFSGSNSGNTATLTISGTQAEDEADYYCQSWKDGVPVFGGGTKLTVLG
23.9 | 22.8 | 2A8 HC S35D+S55R+K99L/LC Y48F+N51V+D91W+D92S (Fab, V domains shown) VH: QVQLVESGGGLVQPGGSLRLSCAASGFTFRSYGMDWVRQAPGKGLEWVSSIRGSRSSTYYADSVKGRFTISRDNSKNTLYLQMNSLRAEDTAVYYCARLYRYWFDYWGQGTLVTVSS VL: DIELTQPPSVSVAPGQTARISCSGDNLRNYYAHWYQQKPGQAPVVVIFYDVNRPSGIPERFSGSNSGNTATLTISGTQAEDEADYYCQSWWSGVPVFGGGTKLTVLG
20 | 18.9 | 2A8 HC S35D+S55R+K99L/LC N29K+Y48F+N51V+D91W (Fab, V domains shown) VH: QVQLVESGGGLVQPGGSLRLSCAASGFTFRSYGMDWVRQAPGKGLEWVSSIRGSRSSTYYADSVKGRFTISRDNSKNTLYLQMNSLRAEDTAVYYCARLYRYWFDYWGQGTLVTVSS VL: DIELTQPPSVSVAPGQTARISCSGDNLRKYYAHWYQQKPGQAPVVVIFYDVNRPSGIPERFSGSNSGNTATLTISGTQAEDEADYYCQSWWDGVPVFGGGTKLTVLG
